Data as given in patent US9441018B2, “Gene from tidal flat metagenome and a novel protein displaying both phospholipase and lipase activities” (KOREA RESEARCH INSTITUTE OF BIOSCIENCE AND BIOTECHNOLOGY, priority 2011, dated 2016).

What was measured:
[1] = Clear zone on solid medium supplemented with tricaprylin emulsion (lipase activity); type: biochemical; conditions: solid nutritive medium
Source text: When tricaprylin is decomposed by lipase, clear zone is formed. So, the colonies forming such clear zone were selected.
(§1) The recombinant plasmid pFosPlaG derived from the metagenome library was isolated in the solid nutritive medium supplemented with tricaprylin emulsion which has been widely used for the isolation/confirmation of lipase gene. To investigate the phospholipase activity of the gene, the purified phospholipase/lipase MPIaG was loaded on the solid medium supplemented with phosphatydilcholine emulsion [0.5% (w/v) phosphatydilcholine, 0.5% (w/v) taurocholic acid, 20 mM CaCl2], followed by observing clear zone to confirm the activity.

[2] = Clear zone on solid medium supplemented with phosphatydilcholine emulsion (phospholipase activity); type: biochemical; conditions: 0.5% phosphatydilcholine, 0.5% taurocholic acid, 20 mM CaCl2
Description: as §1

[3] = Substrate specificity to various phospholipids, clear zone on solid media with phospholipid emulsions; type: biochemical
Description: To investigate substrate specificity to various phospholipids, the purified phospholipase/lipase MPIaG was added to the solid media respectively supplemented with various phospholipid emulsions. Then, the activity over phospholipid was investigated by comparing the size of clear zone. The phospholipid emulsion was composed of 0.5% (v/v) phospholipid substrate, 0.5% (w/v) taurocholic acid, and 20 mM CaCl2. The substrates used herein were phosphatydilcholine (PC, 99% purity), phosphatidylethanolamine (PE, 97% purity), phosphatidylserine (PS, 97% purity), phosphatidylinositol (PI, 98% purity), phosphatidylglycerol (PG, 99% purity), and phosphatidic acid (PA, 98% purity).

[4] = pH-stat / pH titration of released fatty acid (hydrolysis of triacylglyceride, olive oil, phosphatidylcholine); type: biochemical; conditions: for specific enzyme activity: pH 8.0, pH titrator
Description: (§2) First method was pH-stat.
The activity of MPIaG to hydrolyze triacylglyceride, olive oil, and phosphatidylcholine was measured by titrating free fatty acid using pH titrator (842 Tirando, Metrohm). By adding 10 mM NaOH solution, pH of the substrate emulsion was regulated to 8.0. Then, a proper amount of enzyme solution was added thereto. Excretion rate of fatty acid was measured by using pH titrator for 5 minutes. […] To exclude the non-enzymatic hydrolysis value of the substrates, the activity was measured without enzyme addition for every measurement under different conditions, which would be the control reaction.
To further investigate specificity to substrate each having different carbon length, pH titration was performed with triacylglycerides such as tributyrin (C4), tricaprylin (C8), tricaprin (C10), trilaurin (C12), tripalmitin (C16), and triolein (C18:1).

[5] = Spectrophotometric assay with para-nitrophenyl ester substrate; type: biochemical
Description: as §2
(§3) To investigate the enzyme activity over pH, the activities were measured in different pH buffers. […] After staying at different pH for 180 minutes, the remaining activity was measured. As a result, the enzyme activity was maintained stably in the pH range of 5˜10 (FIG. 5). Phospholipase and lipase activity over temperature was also investigated. […] The enzyme activity was still observed at 5° C. (39% of maximum activity). When the temperature was raised more than the optimum activity temperature above, the activity was decreased rapidly (FIG. 6). In addition, melting temperature was also investigated by using differential scanning calorimetry (DSC). As a result, the melting temperature was 38.5° C. (FIG. 7).
Spectrophotometric assay was also performed at room temperature to investigate the activity of MPIaG to para-nitrophenyl ester with various carbon chain lengths, the synthetic substrate. At this experiment, para-nitrophenyl butyrate (C4), para-nitrophenyl caprylate (C8), para-nitrophenyl caprate (C10), para-nitrophenyl laurate (C12), para-nitrophenyl palmitate (C16), and para-nitrophenyl stearate (C18) were used as substrates for the comparison of the activity. 5 mM Ca^2+ was added to the reaction solution. The reaction product para-nitrophenol was continuously measured for 5 minutes at OD450 using DU800 spectrophotometer (Beckman). To exclude the non-enzymatic hydrolysis value of the substrates, the activity was measured without enzyme for every measurement under different conditions, which would be the control reaction.

[6] = Melting temperature by differential scanning calorimetry (DSC); type: physicochemical
Description: as §3
So, it was expected that the structural stability was increased by calcium ion (FIG. 7).

[7] = LC-MS of phosphatidylcholine hydrolysis products (chain length and site specificity); type: biochemical
Description: Specificity of MPIaG over the location and chain length of phospholipid was investigated. To do so, phosphatydilcholine with different carbon chain lengths (C6, C7, C8, and C14) and 1-oleoly-2-palmitoyl-phosphatidylcholine (OPPC) were used. The purified MPIaG was added to 50 mM tris buffer (pH 8.0) containing 5 mM CaCl2 and 150 mM NaCl, followed by enzyme reaction along with 1 mM substrate for 12 hours at 25° C. The reaction product was analyzed by liquid chromatography mass spectrometry (LC-MS) using Finnigan LCQ. Advantage MAX ion trap mass spectrometer (Thermo Fisher Scientific) was equipped with electrospray ionization source. HPLC isolation was performed with HILIC guard column (4×2.0 mm, Phenomenex) and Kinetex HILIC column (2.6 μm, 2.1×100 mm, Phenomenex). The moving phase A was 10 mM ammonium formate whose pH was regulated as 3.0 with formic acid. The moving phase B was acetonitrile. Gradient elution was performed at the flow rate of 0.2 ml/min as follows: 0˜10 min., 10%˜40% A (linear gradient); 10˜20 min., 70% A (isocratic). Column temperature was room temperature, and the injection volume was 10 μL. Mass spectra were obtained from m/z in the negative ion mode 100˜1200 at the maximum ion injection time of 3 microscans and 200 ms.

[8] = Expression in E. coli BL21(DE3), Ni-NTA purification and SDS-PAGE
Description: The E. coli BL21(DE3)/pET22b(+)-MPIaG constructed in Example 4 was cultured in a liquid nutritive medium [1% (w/v) trypton, 0.5% (w/v) yeast extract, 0.5% (w/v) NaCl] containing ampicillin (100 μg/ml) until OD600 reached 0.6. IPTG (isopropyl-β-D-thiogalactopyranoside) was added to the culture solution (final conc.: 0.5 mM), followed by further culture for 12 hours. E. coli BL21(DE3)/pET22b(+)-MPIaG was obtained by centrifugation, which was suspended in binding buffer (50 mM Tris-HCl, pH 8, 500 mM NaCl, 10 mM imidazole). The cell suspension was lysed by ultrasonication. The cell lysate was centrifuged to obtain supernatant. The supernatant was loaded on Ni-NTA (nitriloteiacetic acid) column to elute phospholipase and lipase by imidazole gradient, followed by dialysis-concentration. To confirm the purified phospholipase/lipase MPIaG, SDS-PAGE (sodium dodecyl sulfate-polyacrylamide gel electrophoresis) was performed, followed by staining with Coomassie brilliant blue.

B1: MPIaG: catalytic domain of PlaG, SEQ. ID. NO: 5, protein having both phospholipase and lipase activities, from tidal flat metagenome (protein)
chain: LNQSDYEKAIDYGKLSAQAYDWDDYAAAHVGMGFFANIDDIKATDFATPNYVEVQSVGGYIDWWGTDGLDFKVFQNTETDDLVVAYKGTEPLSPVDWVADAEQIFGNSEQYQKAVDFARDLSAQVEQYNVQNGLTGDAAMQLSFTGHSLGGGLATASALATGREAMAFDAAGLSQGTINNLGLDIRHASKITNFNVKGDWLSDHNKQMDDTTLGSELAGIVPETKQYGNTYWLEGINDIADFGGWLVPDNNMAVDFAKSILNHAWHVYVYMLENDKFL
modifications: phospholipase/lipase MPlaG AA
[1]
  clear zone formation on tricaprylin emulsion medium: formed clear zone on both solid media
[2]
  clear zone formation on phosphatydilcholine emulsion medium: clear zone was clearly formed
[2]; listed as the gene of the present invention
  clear zone formation on phosphatydilcholine emulsion medium: formed clear zone on both solid media
[3]; substrate phosphatidic acid (PA)
  activity to phospholipid substrate (clear zone): did not decompose
[3]; substrate phosphatidylethanolamine (PE)
  activity to phospholipid substrate (clear zone): excellent activity
[3]; substrate phosphatidylglycerol (PG)
  activity to phospholipid substrate (clear zone): excellent activity
[3]; substrate phosphatidylserine (PS)
  activity to phospholipid substrate (clear zone): did not decompose
[3]; substrate phosphatydilcholine (PC)
  activity to phospholipid substrate (clear zone): excellent activity
[4]; as the concentration of tributyrin increased
  interfacial activity: showed interfacial activity
[4]; substrate Olive oil
  specific activity by pH-stat: 114.8 ± 11.3
[4]; substrate Tributyrin (C4)
  specific activity by pH-stat: 140 ± 6.4
[4]; substrate phosphatydilcholine
  specific activity by pH-stat: 13.4 ± 1.5
[4]; toward olive oil
  specific enzyme activity: 2957±144 Umg^−1
[4]; toward phosphatidylcholine
  specific enzyme activity: 1735±147 Umg^−1
[4]; triglycerides C4-C18:1, pH titration
  substrate chain-length preference: triglyceride having short acyl straight chain
[4]; triolein, not degraded by esterase
  hydrolysis of triolein (C18:1): decomposed triolein
[5]
  temperature of maximum activity: 25 °C
  temperature up to which the enzyme is active: up to 40 °C
[5]; at 5° C.
  enzyme activity, % of maximum activity: 39%
[5]; different pH buffers
  pH of maximum activity: 8
[5]; para-nitrophenyl esters C4-C18, 5 mM Ca^2+
  substrate chain-length preference: para-nitrophenyl ester having long acyl straight chain
[5]; remaining activity after 180 minutes at different pH
  pH range in which enzyme activity was maintained stably: 5˜10
[5]; room temperature, 5 mM Ca^2+, reference of the fold not stated
  highest activity, to para-nitrophenyl palmitate (C16): approximately 112 times
[5]; synthetic substrate
  specific activity compared to the full-length phospholipase/lipase PlaG: at least two times increased specific activity
[6]; 0 mM calcium
  melting temperature: 38.5 °C
[6]; 2 mM calcium ion
  melting temperature: 47.2 °C
[6]; 5 mM calcium ion
  melting temperature: 49.2 °C
[7]; 1 mM substrate, 12 hours, 25° C., 5 mM CaCl2
  hydrolase activity of phosphatydilcholine to lysophosphatidylcholine, best substrate: highest to 1,2-Dioctanoyl-phosphatidylcholine (diC8PC)
[7]; OPPC, 25° C., 12 hours, LC-MS
  hydrolysis site on OPPC (site specificity): phospholipase A1
[7]; diC6PC, LC-MS after reaction
  product 2-hexanoyl-lysophosphatidylcholine: 10.4%
  remaining substrate 1,2-dihexanoyl-phosphatidylcholine: 89.6%
[7]; diC7PC, LC-MS after reaction
  product 2-heptanoyl-lysophosphatidylcholine: 49.5%
  remaining substrate 1,2-diheptanoyl-phosphatidylcholine: 50.5%
[7]; diC8PC, LC-MS after reaction
  product 2-octanoyl-lysophosphatidylcholine: 50.4%
  remaining substrate 1,2-dioctanoyl-phosphatidylcholine: 49.6%
[7]; diC14PC, LC-MS after reaction
  product 2-myristoyl-lysophosphatidylcholine: 3.5%
  remaining substrate 1,2-dimyristoyl phosphatidylcholine: 96.5%
[7]; phosphatidylcholines C6, C7, C8, C14
  substrate chain-length preference: phospholipid having medium length acyl straight chain
[8]
  solubility of the expressed protein: expressed in a water-soluble form
